In patent US6962971B2, “Chemokines and methods for inducing the differentiation of fibroblasts to myofibroblasts” (The Regents of the University of California, priority 2001, dated 2005):
Several values for one entry are separate records, joined by “and”; a condition that tells them apart may be missing. Equal values may be shown once. Entries after “also recorded” stand apart in the source; their conditions may differ.

Columns and labels:
α-SMA [1] = assay: Immunostaining for α-SMA in fibroblast cultures and collagen gel sections; format: cell-based, chicken
Description: Plates of fibroblasts were treated with cCAF as described previously. After 4 days, the cells were rinsed with PBS, fixed in 4% paraformaldehyde, permeabilized with 0.15% Triton X-100 and incubated with PBS containing 0.1M glycine for 10 min. Cells were blocked for 30 min with 10% goat serum in PBS, incubated with mouse anti-α-SMA, to a final IgG concentration of 20 μg/ml, in 1% BSA/PBS for 1hr at room temperature (RT), and washed three times with 0.1% BSA/PBS for 10 min each. The cells were then incubated in goat anti-mouse FITC or sheep anti-mouse Texas Red (1:100) in 1% BSA/PBS for 1 hr at RT, washed three times for 10 min with 0.1% BSA in PBS and mounted with Vectashield. Collagen gels were rinsed with PBS, fixed in 4% paraformaldehyde for 2 hr, washed three times 30 min each with PBS, and incubated for an additional 30 min in PBS containing 0.1M glycine. This treatment was followed by incubation at 4° C. overnight in 15% sucrose and then incubated under the same conditions in 30% sucrose. After a brief rinse with PBS, the gels were frozen in OCT, sections prepared and collected on gelatin-coated slides, rinsed with PBS, fixed in 4% paraformaldehyde for 10 min, and then incubated again in PBS containing 0.1M glycine for 10 min. This was followed by blocking for 30 min with 10% goat serum in PBS, incubation in primary and secondary antibody as described above, and mounting with Vectashield.

[2] = system: chicken CXC receptor 1 (CXCR1); assay: Chicken cCXCR1-mediated calcium release; format: cell-based; settings: 400 ng
Description: NIH #373 cells overexpressing the chicken CXC receptor 1 (CXCR1) were exposed to the full-length cCAF molecule, the 15-amino N-terminal peptide of cCAF, or the 28-amino acid C-terminal peptide and calcium release was then measured.

[3] = system: chicken chorioallantoic membrane (CAM); settings: cited from earlier work
α-SMA [4] = assay: Immunostaining for α-SMA in granulation tissue of excision wounds; format: in vivo, chicken; settings: 1 μg cCAF every other day; versus vehicle
Description: (§1) At the specified time points, chickens were euthanized with sodium pentobarbitol. The wounded wings were collected and fixed for 18 hrs in 4% paraformaldehyde and decalcified for 3 days in 5% formic acid, 2.5% formaldehyde at 4° C. The tissue was embedded in paraffin and sectioned. Sections were stained with Masson Trichrome to visualize interstitial collagen. Other sections were immunolabeled for α-SMA. Sections were deparaffinized with 3×15 min washes in Hemo-De and rehydrated in 5 min washes of ethanol (100%, 95%, 70%, 50%, 30%). After rinsing with PBS, sections were fixed in 2% paraformaldehyde 1 hr. General autofluoresence and non-specific staining were blocked by 30 min in 0.1M glycine in PBS, followed by 30 min in 1% Evans Blue in PBS to quench red blood cell autofluorescence. Sections were incubated with α-SMA antibody in 1% BSA in PBS (1:50) for 2 hr at room temperature. After 3×10 min washes in 0.1% BSA in PBS, the sections were incubated for 40 min with anti-mouse Alexa antibody in 1% BSA in PBS (1:200). They were then washed and mounted with Vectashield.

[5] = system: primary chicken embryonic connective tissue fibroblasts; assay: Acridine orange/ethidium bromide staining for apoptotic cells; format: cell-based; settings: cCAF-treated fibroblasts
Description: Plates of fibroblasts treated with cCAF as described above were rinsed twice with PBS and incubated in 0.1 mg/ml acridine orange/ethidium bromide in PBS for 1 min. After rinsing twice with PBS and adding a cover slip, the cells were immediately viewed by epifluorescence microscopy and random fields were photographed. The number of cells with blebbing cytoplasm and fragmented nuclei were counted from the entire field of each photograph.

[6] = system: primary chicken embryonic connective tissue fibroblasts; assay: Fibroblast growth assay; format: cell-based
Description: Primary chicken embryonic connective tissue fibroblasts (CEFs) were cultured as previously described in Martins-Green and Feugate (1998). Briefly, these fibroblasts were isolated from 10-day-old chicken embryo body walls, plated at 6×10^6 cells/100 mm plate and cultured for 4 days in 199 medium with 5% donor calf serum, 1% chick serum and 0.3% tryptose phosphate broth. These cultures were passaged once (secondary cultures); the cells were plated at 0.4×10^6 cells/35 mm plate in 199/tryptose phosphate broth and 2% donor calf serum.
Secondary fibroblasts were plated at 0.4×10^6 cells/35 mm plate and cCAF was added to experimental plates. For each experiment, plating efficiency was determined by trypsinizing plates four hours after plating. Cells were counted with a Coulter particle counter to confirm even plating of cells. The media was replaced approximately every 16 hr with 1 ml of […] 199 medium containing 0.3% tryptose phosphate broth and 2% donor calf serum, and 100-1000 ng cCAF [9-90 nM] or C- or N-peptide [64-640 nM] was added to the experimental plates, whereas, control plates contained media only. On day 3, plates were trypsinized to remove all cells and cells were counted using a Coulter counter. To test for specificity, anti-cCAF rabbit serum was pre-incubated with cCAF (3 μl serum/750 ng cCAF [68 nM] or N-peptide [480 nM]) for 1 hr at room temperature before being added to cells.

α-SMA mRNA = assay: RT-PCR for α-SMA mRNA in fibroblasts; format: cell-based, chicken
Description: Total RNA for α-SMA was extracted using TRIzol reagent from untreated fibroblasts, fibroblasts treated with 750 ng/ml cCAF or fibroblasts treated for varying periods of time with cCAF. The RT-PCR procedure was performed using the Promega Access RT-PCR System, which is designed to finish reverse transcription (RT) and polymerase chain reaction (PCR) in one tube, and following the protocol recommended by Promega, except that 1.5 times the recommended amount of dNTP, reverse transcriptase and Tfl DNA polymerase were used to ensure strong synthesis of 18S ribosomal RNA. The reaction conditions included: 1 μg total RNA, first strand synthesis at 48° C. for 45 min, then 95° C. for 5 min to inactivate the reverse transcriptase, followed by DNA amplification at 95° C. for 45 sec, 58° C. for 60 sec, 68° C. for 90 sec for 40 cycles. Finally, 68° C. for 7 min to extent the strands. 2 μl of Quantum mRNA classic 18S primers (Ambion) were added to reaction to produce the control band. The followin primers used for the amplification of α-SMA: […]
RT-PCR products were analyzed by electrophoresis in 1.5% agarose and the density of the bands was measured by densitometry using Glyko BandScan.

[7] = system: granulation tissue of excision wounds; assay: Histology of excision wounds (Masson Trichrome); format: in vivo, chicken; settings: 1 μg cCAF every other day; versus vehicle
Description: as §1

B1: cCAF: CXC chemokine chicken Chemotactic and Angiogenic Factor, full-length, SEQ ID NO:2; purified or synthesized (protein)
chain: LSQGRTLVKMGNELRCQCISTHSKFIHPKSIQDVKLTPSGPHCKNVEIIATLKDGREVCLDPTAPWVQLIVKALMAKAQLNSDAPL
modifications: Gallusgallus
notes: purified or synthesized
In the case of B1, the “α-SMA immunolabeling of sections of fibroblast-seeded collagen gels” value (α-SMA [1]; versus control gels) is reported as “more cells with fibers staining for α-SMA than control gels”, the “α-SMA immunolabeling of cultured fibroblasts” value (α-SMA [1]; versus untreated control cells) is reported as “more fibroblasts are stained for α-SMA; also recorded: many more cells showing intense staining for fiber bundles” and the “time to calcium release” value [2] is reported as at most 1 min. For the same molecule, the calcium release ([2]; NIH #373 cells overexpressing chicken CXCR1) was “induced a rapid (within 1 min.) release of calcium”, the “angiogenesis in the CAM” value ([3]; high concentrations, in the absence of leukocyte chemotaxis) was “stimulates blood vessel sprouting from the preexisting vessels of the CAM” and the “leukocyte chemotaxis in the CAM” value ([3]; low doses) was “chemotactic for monocyte/macrophages and lymphocytes”. The “cells labeling for α-SMA in granulation tissue, day 3” value (α-SMA [4]) was “numerous cells labeling for α-SMA; also recorded: many more cells that label for α-SMA”, the “cells labeling for α-SMA in granulation tissue, day 5” value (α-SMA [4]) was “many more myofibroblasts than the control wounds; also recorded: many more cells staining for α-SMA” and the “cells labeling for α-SMA in granulation tissue, day 7” value (α-SMA [4]) was “continue to have more labeled cells than do control wounds”. The “apoptotic morphology (cytoplasmic blebbing, nuclear fragmentation)” value [5] was “do not show the characteristics of apoptotic cells; also recorded: compact cytoplasm and an intact nucleus characteristic of healthy cells”, the “time required for the decrease in cell numbers to be detected” value [6] was 2 to 3 days and the “effect on fibroblast growth / cell numbers” value ([6]; 3 days treatment, 2% donor calf serum) was “suppresses fibroblast proliferation in a dose-dependent pattern”. For the same molecule, the “dose of greatest (maximum) suppression of fibroblast proliferation” value ([6]; 3 days treatment, increasing doses of cCAF) was 750 ng/mL and 500 to 750 ng/mL, the “time of greatest suppression of proliferation” value ([6]; after plating, not shown) was 2 days and the “suppression of fibroblast proliferation compared to untreated cells” value ([6]; fibroblasts cultured in the presence of serum (2% donor calf serum), p<0.01) was 25%. For the same molecule, the “fibroblast growth relative to untreated cells” value ([6]; of untreated cells) was “about 75%”, the “time by which α-SMA mRNA drops below control levels” value (α-SMA mRNA; 750 ng/ml cCAF) was at most 24 h and the “time to increase in α-SMA mRNA levels” value (α-SMA mRNA; 750 ng/ml cCAF) was at most 1 h. For the same molecule, the “time α-SMA mRNA levels remain elevated after treatment” value (α-SMA mRNA; 750 ng/ml cCAF) was “up to 12 hr”, the “period with increasing amounts of α-SMA mRNA relative to control” value (α-SMA mRNA; after initiation of treatment, normalized to 18S rRNA) was 1 to 12 h and the “density of granulation tissue, days 3 and 5” value [7] was “denser repair tissue than the control wounds; also recorded: appears more dense earlier in wound healing”. For the same molecule, the “granulation tissue at day 7” value [7] was “minimal; also recorded: appear to be already remodeling”.
